In publication doi:10.1101/2020.08.06.234674 one finds stoichiometry N data, which are given here for two substances.

Values joined by “and” are separate entries in the source; they are usually repeats but may differ in a detail not shown here. Equal values may be shown once.

The target in assay [1] is SARS-CoV-2-3Q-FL spike (without 2P) (SARS-CoV-2) (UniProt P0DTC2). Briefly: cryo-EM structure.
In assay [2] the target is SARS-CoV-2-3Q-2P full-length spike (SARS-CoV-2) (UniProt P0DTC2). As to the kind of experiment: cryo-EM structure.
Assay [3] shares this target. As to the kind of experiment: cryo-EM structure. The source holds these as a separate data set.
The target is the same in assay [4]. As to the kind of experiment: negative stain electron microscopy.

For “SARS-CoV-2-3Q-FL spike (without 2P) (from UniProt P0DTC2 14-1273) (natural protein)”, the stoichiometry N – broadly, a count of units in the complex or per binding partner – in assay [1] was determined as 3.
Turning to “SARS-CoV-2-3Q-2P full-length spike (from UniProt P0DTC2 14-1273) (natural protein)”, the stoichiometry N was 3 and 6 in assay [2]; 9 in assay [3]; 3 in assay [4].
